Test results taken from patent publication US20230030314A1, “Method for Diagnosing Cancer, Cancer Diagnosis Composition, Cancer Diagnosis Kit, Method for Evaluating State of Cancer, and Method for Screening Agents for Preventing and/or Treating Cancer” (Kyushu University, National University Corporation, priority 2019, published 2023).
Ends that are not written are not given here.

Target: T1, PKCα (Homo sapiens, UniProt P17252)
T1 construct: endogenous in cells; host or cells: KU-1, KU-7, T24, TCCSUP, UMUC-3 bladder cancer cells
Test: Phosphorylation of substrate peptide in bladder cancer-derived culture cells, MALDI-TOF MS
Assay type: biochemical
Settings: bladder cancer-derived culture cells KU-1, KU-7, T24, TCCSUP, UMUC-3 (0.2 mg/ml cells); 30 μM peptide, 100 μM ATP, 37° C., 60 minutes
Experimental: An α-cyano-4-hydroxycinnamic acid (CHCA) matrix (10 mg/ml) was prepared in 50% water/acetonitrile and 0.1% TFA. This matrix and a sample were mixed in a ratio of 20:1. The resultant specimen/matrix mixture in a total volume of 1 μl was applied on a sample plate, and the resultant was crystallized by drying. In this example, Auto Flex Speed manufactured by Bruker was used in positive or negative mode. An acceleration voltage was set to 20 kV, and extraction delay time was set to 100 ns. Typically, 100 laser shots were averaged to improve a signal/noise ratio. All spectra were analyzed with Flex Analysis software (Bruker). A phosphorylation percentage was defined as an ionic strength ratio between a phosphorylated substance and a non-phosphorylated substance, and was calculated in accordance with existing description (Kang, J. -H. et al., (2007) J. Am. Soc. Mass Spectrom. 18, 106-112; and Kang J. -H. et al., (2007) J. Am. Soc. Mass Spectrom. 18, 1925-1931). In order to examine whether or not the PKCα specific substrate peptide could be phosphorylated by bladder cancer, culture cells derived from 5 different bladder cancers (KU-1, KU-7, T24, TCCSUP, and UMUC-3) were analyzed by MALDI-TOF MS. […] After performing incubation at 37° C. for 60 minutes, the resultant sample was analyzed by MALDI-TOF MS.

phosphorylation percentage of the substrate peptide: high phosphorylation percentages
Substance: FKKQGSFAKKK-NH2 [substrate peptide]
